Measured values published in publication PMC6920325.

B1: RNV-L7 (ssDNA)
DNA: GGACAGGACCACACCCAGCGCGGTCGGCGGGTGGGCGGGGGGAGAACGAGGTAGGGGTCAGGCTCCTGTGTGTCGCTTTGT

Target: LDL-R (human, UniProt P01130 22-788)
Experiment: ELONA

Sequence of LDL-R (P01130 22-788): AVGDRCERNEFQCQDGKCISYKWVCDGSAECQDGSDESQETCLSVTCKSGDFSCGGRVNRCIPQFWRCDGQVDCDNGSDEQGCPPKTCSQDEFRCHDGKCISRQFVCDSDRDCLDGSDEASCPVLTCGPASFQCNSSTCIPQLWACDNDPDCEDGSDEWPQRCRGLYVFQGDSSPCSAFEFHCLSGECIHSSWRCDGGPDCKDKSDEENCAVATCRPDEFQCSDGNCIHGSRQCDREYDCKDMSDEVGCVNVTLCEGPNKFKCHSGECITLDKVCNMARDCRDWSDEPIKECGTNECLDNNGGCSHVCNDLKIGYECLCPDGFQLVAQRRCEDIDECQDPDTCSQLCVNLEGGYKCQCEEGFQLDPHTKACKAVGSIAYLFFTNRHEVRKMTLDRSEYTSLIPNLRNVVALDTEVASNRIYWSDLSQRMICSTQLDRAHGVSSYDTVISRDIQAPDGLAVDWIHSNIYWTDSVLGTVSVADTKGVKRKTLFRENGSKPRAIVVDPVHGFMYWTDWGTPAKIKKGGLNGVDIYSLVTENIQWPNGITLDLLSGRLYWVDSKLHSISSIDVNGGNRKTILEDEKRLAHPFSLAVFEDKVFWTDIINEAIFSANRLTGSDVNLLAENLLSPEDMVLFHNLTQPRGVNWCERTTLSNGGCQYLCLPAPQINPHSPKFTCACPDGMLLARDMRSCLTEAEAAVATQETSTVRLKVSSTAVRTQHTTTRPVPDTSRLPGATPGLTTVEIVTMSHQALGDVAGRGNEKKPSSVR

| Binder | binding result | Kd |
| --- | --- | --- |
| CGGTCGGCGGGTGGGCGGGGGGAGAACGAGGTAGGGGTCA (ssDNA) [RNV-L7 truncated] | no binding | – |
| B1 | – | 19.6 nM |
